± gives the standard error. For part of these data: Variants at the floor of the assay were thinned out.
B1: glmS ribozyme (parent)
chain: AUAAAAGCGCCAGAACUACAGAAAUGUAGUUGACGAGGAGGAGGUUUAUCGAAUUUUCGGCGGAUGCCUCCAAA

Assays:
Settings in all cases: with glucosamine-6-phosphate
[1] = variants of: B1; experiment: kcat; higher = faster cleavage; RNA array
Procedure, shortened: (§1)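 kobs was derived by fitting per-tile medians to one- or two-exponential decays after normalising signals to baseline and to non-cleaving reference variants. Those signals came from barcoded ribozyme variants transcribed in situ by E. coli RNA polymerase on sequenced MiSeq chips, followed through a hybridised Cy3 probe at 37 °C and imaged over ~14 h. Glucosamine-6-phosphate (40 μM to 10 mM) in HEPES/KCl/Mg(OAc)2 buffer was flowed in. Weighted Michaelis–Menten fits across concentrations then gave kcat and KM.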

[2] = variants of: B1; experiment: self-cleavage kobs at 40 uM GlcN6P; higher = faster cleavage; RNA array
Procedure, shortened: as §1

[3] = variants of: B1; experiment: self-cleavage kobs at 10000 uM GlcN6P; higher = faster cleavage; RNA array
Procedure, shortened: as §1

[4] = variants of: B1; experiment: self-cleavage kobs at 640 uM GlcN6P; higher = faster cleavage; RNA array
Procedure, shortened: as §1

[5] = variants of: B1; experiment: self-cleavage kobs at 2500 uM GlcN6P; higher = faster cleavage; RNA array
Procedure, shortened: as §1

[6] = variants of: B1; experiment: KM; higher = weaker cofactor use; RNA array
Procedure, shortened: as §1

[7] = variants of: B1; experiment: self-cleavage kobs at 160 uM GlcN6P; higher = faster cleavage; RNA array
Procedure, shortened: as §1

Variant | kcat [1] | self-cleavage kobs at 40 uM GlcN6P [2] | self-cleavage kobs at 10000 uM GlcN6P [3] | self-cleavage kobs at 640 uM GlcN6P [4] | self-cleavage kobs at 2500 uM GlcN6P [5] | KM [6] | self-cleavage kobs at 160 uM GlcN6P [7]
A36U A52G | 1.01e-05 ± 3e-06 s⁻¹ | < 1e-05 s⁻¹ | < 1e-05 s⁻¹ |  |  |  | 
G37U C68U | < 1e-05 s⁻¹ |  |  |  |  |  | 
C34G U56G C70U | 3.47e-05 ± 8.1e-06 s⁻¹ |  |  | 3.21e-05 ± 1.5e-05 s⁻¹ | 4.52e-05 ± 2.2e-05 s⁻¹ |  | 
G35U C50A | 8.05e-05 ± 9.8e-06 s⁻¹ |  | 6.59e-05 ± 1.2e-05 s⁻¹ |  | 4.74e-05 ± 9e-06 s⁻¹ | 1970 ± 740 µM | 
G38A A52U | < 1e-05 s⁻¹ |  | < 1e-05 s⁻¹ |  |  |  | 
A33C U56A | 0.000161 ± 5.6e-05 s⁻¹ |  | 8.05e-05 ± 1.2e-05 s⁻¹ |  |  |  | 
G37A U54A U65G | 0.000309 ± 7.3e-05 s⁻¹ |  | 0.000215 ± 5e-05 s⁻¹ | 4.03e-05 ± 1.2e-05 s⁻¹ | 9.16e-05 ± 2e-05 s⁻¹ | 5170 ± 1900 µM | 
A33U C68U | 1.75e-05 ± 1.6e-06 s⁻¹ | < 1e-05 s⁻¹ |  |  |  |  | 
C34G C70G | 1.99e-05 ± 6.6e-07 s⁻¹ |  |  |  |  | 234 ± 89 µM | 
G37A A52G | 0.000162 ± 8.6e-06 s⁻¹ |  | 0.000121 ± 1.5e-05 s⁻¹ |  | 6.77e-05 ± 1.2e-05 s⁻¹ | 3420 ± 440 µM | 
A36G C67A | < 1e-05 s⁻¹ |  |  |  |  |  | 
G32U C50G C71G | 0.000195 ± 2.4e-05 s⁻¹ | 0.000189 ± 5.1e-05 s⁻¹ | 0.000231 ± 5.8e-05 s⁻¹ | 0.000151 ± 6.3e-05 s⁻¹ | 0.000194 ± 6.4e-05 s⁻¹ |  | 
G32C G43U | < 1e-05 s⁻¹ | < 1e-05 s⁻¹ | < 1e-05 s⁻¹ | < 1e-05 s⁻¹ |  |  | < 1e-05 s⁻¹
C34A G38U | < 1e-05 s⁻¹ |  |  | < 1e-05 s⁻¹ |  |  | 
G32A U65G | 0.000643 ± 0.00019 s⁻¹ |  | 0.000374 ± 5e-05 s⁻¹ | 7.49e-05 ± 2.1e-05 s⁻¹ | 0.000139 ± 2.7e-05 s⁻¹ | 7620 ± 3800 µM | 
G32A C68G | 3.18e-05 ± 4.2e-06 s⁻¹ |  | 2.81e-05 ± 9.3e-06 s⁻¹ |  | 3.93e-05 ± 1.4e-05 s⁻¹ |  | 
A33U U54A C70A | 4.75e-05 ± 1.3e-05 s⁻¹ |  |  | 5.86e-05 ± 2e-05 s⁻¹ |  |  | 
A33C A48U | < 1e-05 s⁻¹ | < 1e-05 s⁻¹ |  |  |  |  | < 1e-05 s⁻¹
G32A U55A | 0.00351 ± 0.00053 s⁻¹ | 5.08e-05 ± 9.5e-06 s⁻¹ | 0.00261 ± 0.00038 s⁻¹ | 0.000541 ± 5.3e-05 s⁻¹ | 0.00144 ± 0.00022 s⁻¹ | 3540 ± 690 µM | 0.00014 ± 1.7e-05 s⁻¹

Variant | kcat [1] | self-cleavage kobs at 40 uM GlcN6P [2] | self-cleavage kobs at 10000 uM GlcN6P [3] | self-cleavage kobs at 640 uM GlcN6P [4] | self-cleavage kobs at 2500 uM GlcN6P [5] | KM [6] | self-cleavage kobs at 160 uM GlcN6P [7]
G37U C58U | < 1e-05 s⁻¹ |  | < 1e-05 s⁻¹ |  |  |  | 
G37A U47A | 0.00374 ± 0.0017 s⁻¹ | 4.6e-05 ± 1.8e-05 s⁻¹ | 0.00229 ± 0.00044 s⁻¹ | 0.000278 ± 4.8e-05 s⁻¹ | 0.000752 ± 0.00014 s⁻¹ |  | 7.83e-05 ± 1.8e-05 s⁻¹
C34G U69A | 3.79e-05 ± 1.1e-05 s⁻¹ |  |  | 5.16e-05 ± 1.3e-05 s⁻¹ | 3.05e-05 ± 1.3e-05 s⁻¹ |  | 
G37A C68U | 6.89e-05 ± 7.5e-06 s⁻¹ |  | 5.51e-05 ± 6e-06 s⁻¹ | 1.94e-05 ± 7.7e-06 s⁻¹ | 3.08e-05 ± 5.5e-06 s⁻¹ | 2690 ± 820 µM | 
G35C C50G | 0.000276 ± 6.8e-05 s⁻¹ | 3.26e-05 ± 1.4e-05 s⁻¹ | 0.000205 ± 1.5e-05 s⁻¹ | 4.8e-05 ± 1.6e-05 s⁻¹ | 0.000107 ± 1.2e-05 s⁻¹ |  | 7.69e-05 ± 3.7e-05 s⁻¹
A33U C70U | 0.000127 ± 1.1e-05 s⁻¹ |  | 0.0001 ± 6.7e-06 s⁻¹ | 3.24e-05 ± 9.8e-06 s⁻¹ | 5.5e-05 ± 8.7e-06 s⁻¹ | 2760 ± 730 µM | 
G38A C70A | < 1e-05 s⁻¹ | < 1e-05 s⁻¹ |  |  |  |  | 
G37A G59U C68G | < 1e-05 s⁻¹ |  |  |  |  |  | 
G37C G66A | 3.43e-05 ± 7.8e-06 s⁻¹ | < 1e-05 s⁻¹ |  |  | 3.43e-05 ± 1.5e-05 s⁻¹ |  | 
G32U U69C | 0.00053 ± 3.6e-05 s⁻¹ |  | 0.000391 ± 5.4e-05 s⁻¹ | 7.6e-05 ± 2.3e-05 s⁻¹ | 0.000232 ± 4.8e-05 s⁻¹ | 3470 ± 470 µM | 
G37U C70U C71U | 1.13e-05 ± 3.2e-06 s⁻¹ |  |  |  |  |  | 
A33C | 0.000505 ± 2.5e-05 s⁻¹ | 1.4e-05 ± 2.6e-06 s⁻¹ | 0.000395 ± 6.8e-06 s⁻¹ | 9.27e-05 ± 1.9e-06 s⁻¹ | 0.000541 ± 0.00018 s⁻¹ | 2800 ± 240 µM | 2.95e-05 ± 1.7e-06 s⁻¹
A33U | 0.00014 ± 3.2e-06 s⁻¹ |  | 0.000111 ± 1.4e-06 s⁻¹ | 2.78e-05 ± 1.1e-06 s⁻¹ | 6.53e-05 ± 1.2e-06 s⁻¹ | 2770 ± 160 µM | 
A36C C68G | 7.04e-05 ± 2.3e-05 s⁻¹ | 3.7e-05 ± 1.3e-05 s⁻¹ | 8.61e-05 ± 3.4e-05 s⁻¹ | 0.000107 ± 1.7e-05 s⁻¹ | 4.55e-05 ± 1.3e-05 s⁻¹ |  | 
C34G C68G | 2.55e-05 ± 1e-05 s⁻¹ |  |  |  |  |  | 
G32U U56C | 0.000177 ± 3.9e-05 s⁻¹ | < 1e-05 s⁻¹ | 0.000127 ± 2.4e-05 s⁻¹ | 2.54e-05 ± 8.9e-06 s⁻¹ | 0.000105 ± 2.1e-05 s⁻¹ | 2990 ± 1300 µM | 
G37A G43A | 2.89e-05 ± 3.1e-06 s⁻¹ | < 1e-05 s⁻¹ | 2.52e-05 ± 8.5e-06 s⁻¹ |  |  |  | < 1e-05 s⁻¹
G37C A39U | 1.36e-05 ± 1e-06 s⁻¹ |  |  |  |  | 1230 ± 450 µM | 
A33U C71A | 4.74e-05 ± 6.5e-07 s⁻¹ | < 1e-05 s⁻¹ | 4.32e-05 ± 6.2e-06 s⁻¹ |  | 3.52e-05 ± 8.5e-06 s⁻¹ | 919 ± 65 µM | 

— the supplement of paper PMC7125110
